# Data published in PMC2685776 (Oncogene, 2009).
# Values joined by “and” are separate entries in the source; they are usually repeats but may differ in a detail not shown here. Equal values may be shown once.
# What was measured:
# CBP Kix = CBP Kix (UniProt Q92793); conditions: cited from earlier work
# Kix = conditions: ref Zor et al., 2002, cited from earlier work
# [1] = molecular target: p53 TAD peptide 1-57 Hepta-(Ala) (human) (UniProt P04637); test: fluorescence polarisation
# [2] = molecular target: p53 TAD peptide 10-57 Hepta-(Asp) (human) (UniProt P04637); test: fluorescence polarisation
# UniProt Q92793, sequence (Q92793 587-666): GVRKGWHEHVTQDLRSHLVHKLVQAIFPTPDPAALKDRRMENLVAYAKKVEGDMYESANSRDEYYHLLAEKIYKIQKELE
# CREB, sequence (P16220 whole entry): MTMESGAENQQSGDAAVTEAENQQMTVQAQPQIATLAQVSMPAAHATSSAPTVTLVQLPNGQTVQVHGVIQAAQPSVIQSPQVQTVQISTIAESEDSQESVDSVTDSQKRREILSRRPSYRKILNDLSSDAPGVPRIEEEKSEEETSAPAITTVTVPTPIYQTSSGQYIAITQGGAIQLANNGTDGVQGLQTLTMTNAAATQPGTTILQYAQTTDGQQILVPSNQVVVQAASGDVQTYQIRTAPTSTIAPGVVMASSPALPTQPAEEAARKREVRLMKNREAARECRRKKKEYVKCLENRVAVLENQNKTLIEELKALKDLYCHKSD
substance,measurement,setting,value
CREB (from UniProt P16220),Kd,CBP Kix,700 nM
"CREB: transcription factor CREB, phosphorylated on Ser133, binding Kix (literature)",Kd,"Kix; read-out: KD, Kix, CREB phosphorylated at Ser133",700 nM
same,fold tighter Kix binding upon phosphorylation of Ser133,Kix,150 fold and ~ 150 fold
p300 Taz1 domain (from UniProt Q09472 1-2414) (domain or fragment),Kd,[1],560 nM
same,Kd,[2],38 nM
